Laboratory results reported in the supplement of paper PMC9112550, “Optimization of the antimicrobial peptide Bac7 by deep mutational scanning” (BMC Biology, 2022).
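Further: peptides expressed intracellularly from a pBAD plasmid library in pooled LB shake-flask culture, induced with 0.3% L-arabinose, DNA abundance read by NGS, three biological replicates, DESeq2 with apeglm shrinkage.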

Each sequence was assayed on Escherichia coli TOP10 (assay: shrunken log2 fold change of peptide-encoding DNA abundance (4.5 h post-induction vs induction); higher = less antimicrobial activity (less host growth inhibition)). Details: time post-induction: 4.5 h; library: site-saturation at positions 5, 18, 19, 20.
RRIRCRPPRLPRPRPRPEYPPRP was tested, and the “shrunken log2 fold change” value was 0.0734. In the case of RRIRYRPPRLPRPRPRPFSHPRP, the “shrunken log2 fold change” value was -0.0363. RRIRTRPPRLPRPRPRPVELPRP was tested, and the “shrunken log2 fold change” value was -0.0533. RRIRGRPPRLPRPRPRPNEWPRP was tested, and the “shrunken log2 fold change” value was 1.8. In the case of RRIRFRPPRLPRPRPRPLKPPRP, the “shrunken log2 fold change” value was -0.178. In the case of RRIRSRPPRLPRPRPRPRTFPRP, the “shrunken log2 fold change” value was 0.00214. In the case of RRIRWRPPRLPRPRPRPINKPRP, the “shrunken log2 fold change” value was -0.431. With RRIRCRPPRLPRPRPRPWDDPRP the “shrunken log2 fold change” value was 0.0755. With RRIRTRPPRLPRPRPRPCQCPRP the “shrunken log2 fold change” value was -0.195. In the case of RRIRKRPPRLPRPRPRPFLYPRP, the “shrunken log2 fold change” value was -0.436. For RRIRGRPPRLPRPRPRPRNDPRP, the “shrunken log2 fold change” value was 0.113. For RRIRGRPPRLPRPRPRPQTTPRP, the “shrunken log2 fold change” value was 0.889. For RRIRTRPPRLPRPRPRPRRCPRP, the “shrunken log2 fold change” value was 0.0091. In the case of RRIRVRPPRLPRPRPRPPINPRP, the “shrunken log2 fold change” value was 0.0484. In the case of RRIRRRPPRLPRPRPRPLFGPRP, the “shrunken log2 fold change” value was 0.649. RRIRWRPPRLPRPRPRPKEDPRP was tested, and the “shrunken log2 fold change” value was 0.0809. RRIRCRPPRLPRPRPRPVWPPRP was tested, and the “shrunken log2 fold change” value was 0.239. With RRIRFRPPRLPRPRPRPHCVPRP the “shrunken log2 fold change” value was -0.216. For RRIRTRPPRLPRPRPRPPYSPRP, the “shrunken log2 fold change” value was -0.135. RRIRGRPPRLPRPRPRPSSWPRP was tested, and the “shrunken log2 fold change” value was 1.05. For RRIRNRPPRLPRPRPRPMMIPRP, the “shrunken log2 fold change” value was -0.0237. For RRIRLRPPRLPRPRPRPMAEPRP, the “shrunken log2 fold change” value was 0.141. With RRIRYRPPRLPRPRPRPVTWPRP the “shrunken log2 fold change” value was -0.207. RRIRTRPPRLPRPRPRPCVTPRP was tested, and the “shrunken log2 fold change” value was -0.208. For RRIRPRPPRLPRPRPRPVEQPRP, the “shrunken log2 fold change” value was 0.239. With RRIRGRPPRLPRPRPRPVDKPRP the “shrunken log2 fold change” value was 0.319. With RRIRRRPPRLPRPRPRPQFFPRP the “shrunken log2 fold change” value was -0.259. With RRIRPRPPRLPRPRPRPVRVPRP the “shrunken log2 fold change” value was 0.502. For RRIRRRPPRLPRPRPRPSNEPRP, the “shrunken log2 fold change” value was -0.105. In the case of RRIRKRPPRLPRPRPRPFHKPRP, the “shrunken log2 fold change” value was -0.00277. For RRIRNRPPRLPRPRPRPCQVPRP, the “shrunken log2 fold change” value was -0.106. RRIRGRPPRLPRPRPRPPHGPRP was tested, and the “shrunken log2 fold change” value was 0.903. RRIRKRPPRLPRPRPRPMLTPRP was tested, and the “shrunken log2 fold change” value was 0.189. RRIRVRPPRLPRPRPRPAITPRP was tested, and the “shrunken log2 fold change” value was -0.142. With RRIRWRPPRLPRPRPRPYLKPRP the “shrunken log2 fold change” value was -0.911. RRIRLRPPRLPRPRPRPLSTPRP was tested, and the “shrunken log2 fold change” value was -0.471. In the case of RRIRIRPPRLPRPRPRPPQQPRP, the “shrunken log2 fold change” value was 0.197. For RRIRGRPPRLPRPRPRPWDYPRP, the “shrunken log2 fold change” value was 0.183. In the case of RRIRVRPPRLPRPRPRPSPLPRP, the “shrunken log2 fold change” value was -0.0757. For RRIRMRPPRLPRPRPRPWLAPRP, the “shrunken log2 fold change” value was 0.0737. In the case of RRIRDRPPRLPRPRPRPFACPRP, the “shrunken log2 fold change” value was 0.107. With RRIRNRPPRLPRPRPRPPSSPRP the “shrunken log2 fold change” value was -0.0814. In the case of RRIRFRPPRLPRPRPRPGYMPRP, the “shrunken log2 fold change” value was -0.922. In the case of RRIRYRPPRLPRPRPRPGTHPRP, the “shrunken log2 fold change” value was -0.678. RRIRHRPPRLPRPRPRPHCGPRP was tested, and the “shrunken log2 fold change” value was -0.0402. RRIRHRPPRLPRPRPRPNWEPRP was tested, and the “shrunken log2 fold change” value was -0.0833. RRIRLRPPRLPRPRPRPQEYPRP was tested, and the “shrunken log2 fold change” value was -0.846. In the case of RRIRARPPRLPRPRPRPKWSPRP, the “shrunken log2 fold change” value was 0.354. For RRIRKRPPRLPRPRPRPLLQPRP, the “shrunken log2 fold change” value was 0.31. With RRIRKRPPRLPRPRPRPDQNPRP the “shrunken log2 fold change” value was 0.678. In the case of RRIRIRPPRLPRPRPRPIVIPRP, the “shrunken log2 fold change” value was -0.103. With RRIRNRPPRLPRPRPRPCCMPRP the “shrunken log2 fold change” value was -0.0549. For RRIRHRPPRLPRPRPRPYLCPRP, the “shrunken log2 fold change” value was -0.0059. In the case of RRIRHRPPRLPRPRPRPYVFPRP, the “shrunken log2 fold change” value was -0.508. For RRIRSRPPRLPRPRPRPSLSPRP, the “shrunken log2 fold change” value was -0.0859. RRIRRRPPRLPRPRPRPMILPRP was tested, and the “shrunken log2 fold change” value was 0.359. With RRIRSRPPRLPRPRPRPCMFPRP the “shrunken log2 fold change” value was -0.258. RRIRKRPPRLPRPRPRPFHRPRP was tested, and the “shrunken log2 fold change” value was -0.0303. In the case of RRIRVRPPRLPRPRPRPQYLPRP, the “shrunken log2 fold change” value was -0.12. With RRIRIRPPRLPRPRPRPPVEPRP the “shrunken log2 fold change” value was -0.0536. In the case of RRIRDRPPRLPRPRPRPSDFPRP, the “shrunken log2 fold change” value was 0.259. RRIRQRPPRLPRPRPRPLIMPRP was tested, and the “shrunken log2 fold change” value was -0.0338. In the case of RRIRNRPPRLPRPRPRPDRTPRP, the “shrunken log2 fold change” value was -0.161. With RRIRLRPPRLPRPRPRPNCLPRP the “shrunken log2 fold change” value was -0.61. RRIRRRPPRLPRPRPRPAKRPRP was tested, and the “shrunken log2 fold change” value was 0.863. In the case of RRIRLRPPRLPRPRPRPWWNPRP, the “shrunken log2 fold change” value was -0.426. For RRIRCRPPRLPRPRPRPRWQPRP, the “shrunken log2 fold change” value was 0.0261. For RRIRERPPRLPRPRPRPCLCPRP, the “shrunken log2 fold change” value was -0.134. With RRIRARPPRLPRPRPRPLRTPRP the “shrunken log2 fold change” value was 0.541. With RRIRRRPPRLPRPRPRPSPQPRP the “shrunken log2 fold change” value was 1.96. With RRIRRRPPRLPRPRPRPNEYPRP the “shrunken log2 fold change” value was -0.123. In the case of RRIRMRPPRLPRPRPRPKFYPRP, the “shrunken log2 fold change” value was 0.0127. RRIRVRPPRLPRPRPRPLFRPRP was tested, and the “shrunken log2 fold change” value was -0.134. With RRIRLRPPRLPRPRPRPNDQPRP the “shrunken log2 fold change” value was -0.19. With RRIRARPPRLPRPRPRPANDPRP the “shrunken log2 fold change” value was 0.0448.
